Data reported in paper PMC8643638 (Nucleic Acids Research, 2021).
Residue numbers refer to the chain shown, from its start. Numbers in names are those of the source. Blank lines part the entries; values can stand above or below the molecule they belong to.

Legend:
[1] = target: T1, Sis0811 (SisRN0811), full length (Saccharolobus islandicus, UniProt F0NH89); experiment: isothermal titration calorimetry, single-site model; assay type: binding
T1 sequence (F0NH89 1-322): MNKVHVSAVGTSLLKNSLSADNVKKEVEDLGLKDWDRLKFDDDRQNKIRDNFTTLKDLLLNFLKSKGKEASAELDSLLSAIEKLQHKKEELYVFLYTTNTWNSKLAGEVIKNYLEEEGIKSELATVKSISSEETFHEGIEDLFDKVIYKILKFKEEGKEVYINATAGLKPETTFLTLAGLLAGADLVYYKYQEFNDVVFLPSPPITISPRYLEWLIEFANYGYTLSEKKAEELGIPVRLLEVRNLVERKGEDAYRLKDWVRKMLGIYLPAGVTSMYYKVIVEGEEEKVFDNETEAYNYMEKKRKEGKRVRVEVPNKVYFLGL

Sis0811Δ268 = target: T2, Sis0811Δ268 (Saccharolobus islandicus, UniProt F0NH89); experiment: as above; assay type: binding
T2 sequence (F0NH89 1-268): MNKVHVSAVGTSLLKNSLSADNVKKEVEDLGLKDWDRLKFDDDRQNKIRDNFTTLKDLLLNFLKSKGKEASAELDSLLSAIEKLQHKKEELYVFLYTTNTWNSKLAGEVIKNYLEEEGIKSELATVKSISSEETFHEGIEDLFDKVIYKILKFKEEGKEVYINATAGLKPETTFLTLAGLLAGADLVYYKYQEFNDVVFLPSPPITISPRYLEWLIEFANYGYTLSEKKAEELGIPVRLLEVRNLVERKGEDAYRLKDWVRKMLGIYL

SEC-MALS = target: the molecule itself; experiment: SEC-MALS
crystal structure = target: the molecule itself; experiment: crystal structure

Kd [1]: 9.1 nM
Kd (Sis0811Δ268): 5.9 nM
Molecule: Nc1ncnc2c1ncn2[C@@H]1O[C@@H]2COP(=O)(O)O[C@H]3[C@@H](O)[C@H](n4cnc5c(N)ncnc54)O[C@@H]3COP(=O)(O)O[C@H]3[C@@H](O)[C@H](n4cnc5c(N)ncnc54)O[C@@H]3COP(=O)(O)O[C@H]3[C@@H](O)[C@H](n4cnc5c(N)ncnc54)O[C@@H]3COP(=O)(O)O[C@H]2[C@H]1O [cA4]

B1: Sis0811_(Δ268) (truncated Sis0811 lacking the C-terminal 54 residues) (domain or fragment, Sulfolobus islandicus REY15A, UniProt F0NH89 1-268, looked up)
chain: T2 sequence (F0NH89 1-268)
stoichiometry N (SEC-MALS): 2

B2: Sis0811_(Δ268)(S12A) (domain or fragment, Sulfolobus islandicus REY15A, UniProt F0NH89 1-268, looked up)
chain: T2 sequence (F0NH89 1-268) with S12A
binding result (crystal structure): binds

B3: Sis0811_(Δ268)(S12G/K169G) (domain or fragment, Sulfolobus islandicus REY15A, UniProt F0NH89 1-268, looked up)
chain: T2 sequence (F0NH89 1-268) with S12G, K169G
binding result (crystal structure): binds

B4: Sis0811 full length (standalone ring nuclease from Sulfolobus islandicus REY15A) (enzyme, UniProt F0NH89 1-322, looked up)
chain: T1 sequence (F0NH89 1-322)
stoichiometry N (SEC-MALS): 2
